This is an account of results in patent US5834273A, “Heat-stable and water soluble modified enzymes” (Wako Pure Chemical Industries, Ltd., priority 1991, dated 1998).

In the data set the target is T1, XOD (Bos taurus, UniProt P80457).
T1 construct: purchased Boehringer Mannheim GmbH
As to the kind of experiment: Thermal stability of XOD. The data set is classed as physicochemical, cow. To be noted: 75 min, pH 7.0, 0.2 U/ml. On the procedure: Measuring Method of XOD Activity
The method described in Method of Enzymatic Analysis, vol. 3, pages 212, 1983.
To 2 ml of aqueous solution containing 5 mg of pyromellitic acid-modified dextran obtained in Example 1(1), 65 mg of WSC was added. To the resulting solution maintained at pH 6.0 using a pH-stat, 0.5 ml of 10 mM phosphate buffer solution (pH 7.0) containing 10 mg of XOD (mfd. by Boehringer Mannheim GmbH., derived from cow milk) was added and reacted at 50° C. for 24 hours.
The thus obtained modified XOD and the intact XOD were dissolved in 20 mM phosphate buffer solution (pH 7.0) in an amount of 0.2 U/ml, respectively,and stored at a predetermined temperature for 75 min. to measure the change of residual activity.

T1 sequence (P80457 whole entry): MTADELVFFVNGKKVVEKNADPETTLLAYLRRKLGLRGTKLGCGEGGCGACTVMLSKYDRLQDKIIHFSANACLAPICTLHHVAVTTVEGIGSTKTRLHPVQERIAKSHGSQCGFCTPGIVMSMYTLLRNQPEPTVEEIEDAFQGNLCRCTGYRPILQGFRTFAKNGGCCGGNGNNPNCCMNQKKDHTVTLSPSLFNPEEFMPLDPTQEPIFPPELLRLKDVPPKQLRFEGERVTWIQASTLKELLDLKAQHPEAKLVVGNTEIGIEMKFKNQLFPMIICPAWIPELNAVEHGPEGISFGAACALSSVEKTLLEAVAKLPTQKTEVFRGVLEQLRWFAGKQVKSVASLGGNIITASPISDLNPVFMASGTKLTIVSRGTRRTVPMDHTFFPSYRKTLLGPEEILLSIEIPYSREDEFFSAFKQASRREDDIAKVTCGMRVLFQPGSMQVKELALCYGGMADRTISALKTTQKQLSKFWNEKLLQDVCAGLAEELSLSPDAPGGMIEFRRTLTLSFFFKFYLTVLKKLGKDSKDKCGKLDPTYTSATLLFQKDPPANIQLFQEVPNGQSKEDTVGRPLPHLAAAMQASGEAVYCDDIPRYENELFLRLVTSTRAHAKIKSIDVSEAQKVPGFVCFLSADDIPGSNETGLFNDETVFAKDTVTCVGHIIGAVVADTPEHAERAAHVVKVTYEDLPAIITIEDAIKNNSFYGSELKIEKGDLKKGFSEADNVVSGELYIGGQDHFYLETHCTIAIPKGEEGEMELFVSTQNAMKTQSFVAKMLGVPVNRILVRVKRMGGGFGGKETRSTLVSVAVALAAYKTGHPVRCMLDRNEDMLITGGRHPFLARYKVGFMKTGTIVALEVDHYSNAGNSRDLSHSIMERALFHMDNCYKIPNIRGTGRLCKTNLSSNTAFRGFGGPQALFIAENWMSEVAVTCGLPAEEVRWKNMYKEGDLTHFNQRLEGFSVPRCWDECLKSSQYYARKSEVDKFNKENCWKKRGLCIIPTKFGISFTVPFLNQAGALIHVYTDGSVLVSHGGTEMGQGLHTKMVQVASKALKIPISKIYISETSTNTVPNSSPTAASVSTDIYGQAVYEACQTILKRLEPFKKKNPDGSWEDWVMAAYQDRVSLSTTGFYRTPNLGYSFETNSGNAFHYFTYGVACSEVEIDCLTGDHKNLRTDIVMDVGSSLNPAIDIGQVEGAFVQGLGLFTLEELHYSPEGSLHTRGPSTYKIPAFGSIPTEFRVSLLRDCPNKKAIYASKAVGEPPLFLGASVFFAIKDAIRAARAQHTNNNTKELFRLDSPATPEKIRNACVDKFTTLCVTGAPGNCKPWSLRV

Consider “Intact XOD: xanthine oxidase (E.C.1.2.3.2), mfd. by Boehringer Mannheim GmbH., derived from cow milk”, for which the Residual activity by setting is: (56 °C) 40.5%; (58 °C) 31.2%; (60 °C) 23.4%.
